Measured values reported in patent publication US20210040184A1 (ATRECA, published 2021).
Changes are numbered by the printed parent chain.

Assays:
Assay in all cases: cell-based or functional assay
[1] = target: HIV-1 DU172.17 envelope (Env) on Env.IMC.LucR virus (HIV-1 clade C)
[2] = target: HIV-1 X1632_S2_B10 envelope (Env) on Env.IMC.LucR virus (HIV-1 clade G)
[3] = target: HIV-1 AC10.0.29 envelope (Env) on Env.IMC.LucR virus (HIV-1 clade B)
[4] = target: HIV-1 CAP45.2.00.G3 envelope (Env) on Env.IMC.LucR virus (HIV-1 clade C)
[5] = target: HIV-1 CNE20 envelope (Env) on Env.IMC.LucR virus (HIV-1 clade BC)
[6] = target: HIV-1 DU422.1 envelope (Env) on Env.IMC.LucR virus (HIV-1 clade C)
[7] = target: HIV-1 REJO4541.67 envelope (Env) on Env.IMC.LucR virus (HIV-1 clade B)
[8] = target: HIV-1 ZM233M.PB6 envelope (Env) on Env.IMC.LucR virus (HIV-1 clade C)
[9] = target: HIV-1 WITO4160.33 envelope (Env) on Env.IMC.LucR virus (HIV-1 clade B)
[10] = target: HIV-1 THRO4156.18 envelope (Env) on Env.IMC.LucR virus (HIV-1 clade B)

B1: Germ17 (antibody, V domains shown)
VH: QVDLVQSGAVVKKPGDSVRVSCEAQGYRFPDYIIHWIRRAPGQGPEWMGWMNPMGGQVNIPWKFQGRVSMTRDTSIETAYMDLRGLRSDDTAVYYCVRDRSNGSGKRFESSNWFLDLWGRGTLVTVSS
VL: QSALTQPRSVSGSPGQSVTISCTGTHNLVSWCQHHPGKAPKLMIYDFNKRPSGVPDRFSGSGSGGTASLTISGLQAEDEAEYFCWAYEAFGGGTKLTVL
IC50 of virus neutralization (TZM-BL, luciferase) [1]: 0.117 mg/L | IC50 of virus neutralization (TZM-BL, luciferase) [2]: > 50 mg/L | IC50 of virus neutralization (TZM-BL, luciferase) [3]: > 50 mg/L | IC50 of virus neutralization (TZM-BL, luciferase) [4]: 0.037 mg/L | IC50 of virus neutralization (TZM-BL, luciferase) [5]: 0.081 mg/L | IC50 of virus neutralization (TZM-BL, luciferase) [6]: > 50 mg/L | IC50 of virus neutralization (TZM-BL, luciferase) [7]: 0.033 mg/L

B2: Hydro2 (antibody, V domains shown)
VH: ADLVQSGAVVKKPGDSVRISCEAQGYRFPDYIIHWIRRAPGQGPEWMGWMNPMGGQVNIPQKFQGRVSMTRDTSIETAFLDLRGLKSDDTAVYYCVRDRSNGSGKRFESSNWFLDLWGRGTAVTIQS
VL: B1 VL with G12A, H35Q, K38R, M43L, S72T, A76D, E77D, E79D, A89N
IC50 of virus neutralization (TZM-BL, luciferase) [1]: 0.131 mg/L | IC50 of virus neutralization (TZM-BL, luciferase) [2]: > 50 mg/L | IC50 of virus neutralization (TZM-BL, luciferase) [3]: > 50 mg/L | IC50 of virus neutralization (TZM-BL, luciferase) [4]: 0.039 mg/L | IC50 of virus neutralization (TZM-BL, luciferase) [5]: 0.049 mg/L | IC50 of virus neutralization (TZM-BL, luciferase) [6]: > 50 mg/L | IC50 of virus neutralization (TZM-BL, luciferase) [7]: ≤ 0.02 mg/L

B3: Germ6 (antibody, V domains shown)
VH: B2 VH with I19V, Q61W, F79Y, I125V
VL: B1 VL with H35Q, K38R, M43L, A76D, E79D
IC50 of virus neutralization (TZM-BL, luciferase) [1]: 0.102 mg/L | IC50 of virus neutralization (TZM-BL, luciferase) [2]: > 50 mg/L | IC50 of virus neutralization (TZM-BL, luciferase) [3]: > 50 mg/L | IC50 of virus neutralization (TZM-BL, luciferase) [4]: 0.135 mg/L | IC50 of virus neutralization (TZM-BL, luciferase) [5]: 0.091 mg/L | IC50 of virus neutralization (TZM-BL, luciferase) [6]: > 50 mg/L | IC50 of virus neutralization (TZM-BL, luciferase) [7]: 0.062 mg/L

B4: CysCA (antibody, V domains shown)
VH: B2 VH with Q61W
VL: B1 VL with G12A, C32A, H35Q, K38R, M43L, S72T, A76D, E77D, E79D
IC50 of virus neutralization (TZM-BL, luciferase) [1]: 0.169 mg/L | IC50 of virus neutralization (TZM-BL, luciferase) [2]: > 50 mg/L | IC50 of virus neutralization (TZM-BL, luciferase) [3]: > 50 mg/L | IC50 of virus neutralization (TZM-BL, luciferase) [4]: 0.035 mg/L | IC50 of virus neutralization (TZM-BL, luciferase) [5]: 0.034 mg/L | IC50 of virus neutralization (TZM-BL, luciferase) [6]: > 50 mg/L | IC50 of virus neutralization (TZM-BL, luciferase) [7]: ≤ 0.02 mg/L

B5: Germ18 (antibody, V domains shown)
VH: B1 VH with D3Q, V10E, D16A, R19K, Q25S, D82E
VL: B1 VL with H35Q, K38R, M43L, A76D, E79D
IC50 of virus neutralization (TZM-BL, luciferase) [1]: 0.223 mg/L | IC50 of virus neutralization (TZM-BL, luciferase) [2]: > 50 mg/L | IC50 of virus neutralization (TZM-BL, luciferase) [3]: > 50 mg/L | IC50 of virus neutralization (TZM-BL, luciferase) [4]: 0.036 mg/L | IC50 of virus neutralization (TZM-BL, luciferase) [5]: 0.081 mg/L | IC50 of virus neutralization (TZM-BL, luciferase) [6]: > 50 mg/L | IC50 of virus neutralization (TZM-BL, luciferase) [7]: 0.039 mg/L

B6: NglycoSA (antibody, V domains shown)
VH: B2 VH with Q61W, S103A
VL: B1 VL with G12A, H35Q, K38R, M43L, S72T, A76D, E77D, E79D
IC50 of virus neutralization (TZM-BL, luciferase) [1]: 0.11 mg/L | IC50 of virus neutralization (TZM-BL, luciferase) [8]: 0.151 mg/L | IC50 of virus neutralization (TZM-BL, luciferase) [9]: 0.179 mg/L | IC50 of virus neutralization (TZM-BL, luciferase) [2]: > 50 mg/L | IC50 of virus neutralization (TZM-BL, luciferase) [10]: 0.929 mg/L | IC50 of virus neutralization (TZM-BL, luciferase) [3]: > 50 mg/L | IC50 of virus neutralization (TZM-BL, luciferase) [4]: 0.037 mg/L | IC50 of virus neutralization (TZM-BL, luciferase) [5]: 0.05 mg/L | IC50 of virus neutralization (TZM-BL, luciferase) [6]: > 50 mg/L | IC50 of virus neutralization (TZM-BL, luciferase) [7]: 0.04 mg/L

B7: Germ12_NglycoSA_CysCA (antibody, V domains shown)
VH: B1 VH with S104A
VL: B1 VL with C32A, H35Q, K38R, M43L, A76D, E79D
IC50 of virus neutralization (TZM-BL, luciferase) [1]: 0.088 mg/L | IC50 of virus neutralization (TZM-BL, luciferase) [2]: > 50 mg/L | IC50 of virus neutralization (TZM-BL, luciferase) [3]: > 50 mg/L | IC50 of virus neutralization (TZM-BL, luciferase) [4]: 0.042 mg/L | IC50 of virus neutralization (TZM-BL, luciferase) [5]: 0.062 mg/L | IC50 of virus neutralization (TZM-BL, luciferase) [6]: > 50 mg/L | IC50 of virus neutralization (TZM-BL, luciferase) [7]: 0.028 mg/L

B8: Germ23 (antibody, V domains shown)
VH: B1 VH with D3Q, V10E, D16A, R19K, Q25S, D82E
VL: B1 VL
IC50 of virus neutralization (TZM-BL, luciferase) [1]: 0.182 mg/L | IC50 of virus neutralization (TZM-BL, luciferase) [2]: > 50 mg/L | IC50 of virus neutralization (TZM-BL, luciferase) [3]: > 50 mg/L | IC50 of virus neutralization (TZM-BL, luciferase) [4]: 0.035 mg/L | IC50 of virus neutralization (TZM-BL, luciferase) [5]: 0.066 mg/L | IC50 of virus neutralization (TZM-BL, luciferase) [6]: > 50 mg/L | IC50 of virus neutralization (TZM-BL, luciferase) [7]: 0.037 mg/L

B9: Germ23_NglycoSA_CysCV (antibody, V domains shown)
VH: B1 VH with D3Q, V10E, D16A, R19K, Q25S, D82E, S104A
VL: B1 VL with C32V
IC50 of virus neutralization (TZM-BL, luciferase) [1]: 0.831 mg/L | IC50 of virus neutralization (TZM-BL, luciferase) [2]: > 50 mg/L | IC50 of virus neutralization (TZM-BL, luciferase) [3]: > 50 mg/L | IC50 of virus neutralization (TZM-BL, luciferase) [4]: 0.05 mg/L | IC50 of virus neutralization (TZM-BL, luciferase) [5]: 0.064 mg/L | IC50 of virus neutralization (TZM-BL, luciferase) [6]: > 50 mg/L | IC50 of virus neutralization (TZM-BL, luciferase) [7]: ≤ 0.02 mg/L

B10: Germ12 (antibody, V domains shown)
VH: B1 VH
VL: B1 VL with H35Q, K38R, M43L, A76D, E79D
IC50 of virus neutralization (TZM-BL, luciferase) [1]: 0.267 mg/L | IC50 of virus neutralization (TZM-BL, luciferase) [2]: > 50 mg/L | IC50 of virus neutralization (TZM-BL, luciferase) [3]: > 50 mg/L | IC50 of virus neutralization (TZM-BL, luciferase) [4]: 0.063 mg/L | IC50 of virus neutralization (TZM-BL, luciferase) [5]: 0.244 mg/L | IC50 of virus neutralization (TZM-BL, luciferase) [6]: > 50 mg/L | IC50 of virus neutralization (TZM-BL, luciferase) [7]: 0.092 mg/L

B11: Cd4bs_H53MS_H54GY (antibody, V domains shown)
VH: B2 VH with M53S, G54Y, Q61W
VL: B1 VL with G12A, H35Q, K38R, M43L, S72T, A76D, E77D, E79D
IC50 of virus neutralization (TZM-BL, luciferase) [1]: 0.273 mg/L | IC50 of virus neutralization (TZM-BL, luciferase) [8]: 0.096 mg/L | IC50 of virus neutralization (TZM-BL, luciferase) [9]: 0.15 mg/L | IC50 of virus neutralization (TZM-BL, luciferase) [2]: 9.87 mg/L | IC50 of virus neutralization (TZM-BL, luciferase) [3]: 3 mg/L | IC50 of virus neutralization (TZM-BL, luciferase) [4]: 0.03 mg/L | IC50 of virus neutralization (TZM-BL, luciferase) [5]: 0.047 mg/L | IC50 of virus neutralization (TZM-BL, luciferase) [6]: 0.89 mg/L | IC50 of virus neutralization (TZM-BL, luciferase) [7]: 0.044 mg/L

B12: CysCV (antibody, V domains shown)
VH: B2 VH with Q61W
VL: B1 VL with G12A, C32V, H35Q, K38R, M43L, S72T, A76D, E77D, E79D
IC50 of virus neutralization (TZM-BL, luciferase) [1]: 0.102 mg/L | IC50 of virus neutralization (TZM-BL, luciferase) [8]: 0.079 mg/L | IC50 of virus neutralization (TZM-BL, luciferase) [9]: 0.186 mg/L | IC50 of virus neutralization (TZM-BL, luciferase) [2]: > 50 mg/L | IC50 of virus neutralization (TZM-BL, luciferase) [10]: 1.4 mg/L | IC50 of virus neutralization (TZM-BL, luciferase) [3]: > 50 mg/L | IC50 of virus neutralization (TZM-BL, luciferase) [4]: 0.035 mg/L | IC50 of virus neutralization (TZM-BL, luciferase) [5]: 0.037 mg/L | IC50 of virus neutralization (TZM-BL, luciferase) [6]: > 50 mg/L | IC50 of virus neutralization (TZM-BL, luciferase) [7]: ≤ 0.02 mg/L
